Data on two substances can be found in US20220283175A1, “METALLOENZYMES FOR BIOMOLECULAR RECOGNITION OF N-TERMINAL MODIFIED PEPTIDES” (Encodia, Inc., priority 2020, published 2022).

What all share (assay): cell-based or functional assay
In assay [1] the target is wild-type human carbonic anhydrase II (hCAII) protein (human) (UniProt P00918).
Assay [2] concerns the target M64-LAEIR.
The target in assay [3] is M64-DAEIR.
Assay [4] deals with M64-EAEIR.
Assay [5] addresses M64-FAEIR.
Assay [6] concerns the target M64-AAEIR.

On to FAAAE (peptide), for which the IC50 (µM), hCAII functional assay in assay [1] came out at 152 µM.
“SEQ ID NO: 58 (wild-type hCAI according to the heading of Table 11) (from UniProt P00915 5-261) (enzyme)”: the IC50 (inhibition of pNPA hydrolysis, colorimetric assay) in assay [2] is 0.016 µM; in assay [3], 0.136 µM; in assay [4], 1.09 µM; in assay [5], 0.012 µM; in assay [6] it was 0.109 µM.
